Assay results as given in patent US20070117770A1, “Human ribosomal DNA (rDNA) and ribosomal RNA (rRNA) nucleic acids and uses thereof” (Cylene Pharmaceuticals, Inc., priority 2005, published 2007).

B1: AGGGCGGCGGGCGGGGAAGAGGGCACAGACGGGCGAGGGCCGGGGACCGCGAGGGCAAGGGCACCCGGG (nucleic acid, listed as Homo sapiens)
chain: AGGGCGGCGGGCGGGGAAGAGGGCACAGACGGGCGAGGGCCGGGGACCGCGAGGGCAAGGGCACCCGGG
modifications: DNA, backbone and methylation of C not given here
B2: CGGAGGGCGCGCGGGTCGGGGCGGCGGCGGCGGCGGCGGTGGCGGCGGCGGCGGGGGCGGCGGG (nucleic acid, listed as Homo sapiens)
chain: CGGAGGGCGCGCGGGTCGGGGCGGCGGCGGCGGCGGCGGTGGCGGCGGCGGCGGGGGCGGCGGG
modifications: listed as DNA, chemistry not given here

How the values were obtained:
nucleolin [1] = molecular target: T1, nucleolin (Homo sapiens, UniProt P19338); test: Filter-binding assay of 32P-labeled quadruplexes and Nucleolin; conditions: for Kd: 0.2 nM 32P-labeled quadruplex, read-out: Kd, apparent dissociation constant of nucleolin protein and the nucleic acid ligand
T1 construct: without the N-terminal acidic stretches domain
T1 sequence (P19338 284-710 limits assumed): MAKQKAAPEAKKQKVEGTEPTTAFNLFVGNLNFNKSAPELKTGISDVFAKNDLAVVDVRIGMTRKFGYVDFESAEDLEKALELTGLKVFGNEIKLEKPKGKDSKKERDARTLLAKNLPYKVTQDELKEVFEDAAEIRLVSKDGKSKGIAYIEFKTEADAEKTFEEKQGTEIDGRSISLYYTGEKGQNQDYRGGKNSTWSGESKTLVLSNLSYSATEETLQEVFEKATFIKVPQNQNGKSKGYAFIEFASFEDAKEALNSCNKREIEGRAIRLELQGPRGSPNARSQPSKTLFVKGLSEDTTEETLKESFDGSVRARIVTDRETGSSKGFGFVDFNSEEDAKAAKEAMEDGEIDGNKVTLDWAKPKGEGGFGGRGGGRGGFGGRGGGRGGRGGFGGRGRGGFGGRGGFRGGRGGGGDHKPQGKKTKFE
Description: The assay also was conducted in a filter-binding format. […] The protein-quadruplex mixtures were incubated for 30 min at ambient temperature and filtered through mixed cellulose ester membrane filters (Millipore) with gentle suction. The filters were washed twice with […] of binding buffer, dried and OptiPhase ‘SuperMix’ scintillation cocktail (Perkin Elmer) was added to the wells. Radioactivity was assayed with MicroBeta scintillation counter (Perkin Elmer). Binding curves were constructed and apparent Kd's and Bmax's for the complexes were calculated using the GraphPad Prizm software program (GraphPad Software). In the following table, the nucleic acid ligand is designated in the first column using the nomenclature described herein; the second column provides the nucleotide sequence of the nucleic acid ligand; the third column is the conformation of the ligand as determined by circular dichroism (M is mixed, P is parallel, A is antiparallel, C is complex, SS is single-stranded and ND is not determined); the fourth column is the dissociation constant determined by the filter binding assay of nucleolin protein and the nucleic acid ligand; the fifth column is a Bmax constant determined by the filter binding assay, which is the percent of active nucleic acid ligand in each assay; and the sixth column presents the concentration of Compound A-1 required to dissociate half of the complexed nucleic acid ligand and nucleolin protein, as determined by the EMSA assay described above.

nucleolin [2] = molecular target: T1, nucleolin; test: EMSA, relative affinity of nucleic acid ligands for nucleolin; type: binding; design: key: +: weakest nucleolin affinity; ++++: strongest nucleolin affinity
Description: The following assays assessed effects of compounds on interactions between nucleolin and nucleic acid ligands capable of forming quadruplex (QP) and hairpin (HP) secondary structures. Nucleic acid ligands tested were a cMyc QP DNA having nucleotide sequence 5′-[…]-3′ (SEQ ID NO: 176) and a HP pre-rRNA region to which nucleolin binds, having the sequence 5′-[…]-3′ (SEQ ID NO: 177). In the assays, recombinant nucleolin (˜250 nM), which was fused to maltose binding protein and had the sequence under accession number NM_005381 without the N-terminal acidic stretches domain, was incubated with each of the two ^32P-labeled nucleic acid ligands (10 or 250 nM). Nucleolin and the nucleic acid ligand were incubated in the presence or absence of a test compound of Formula A-1, B-1, C-6 or C-7 in an incubation buffer (12.5 mM Tris, pH 7.6, 60 mM KCl, 1 mM MgCl2, 0.1 mM EDTA, 1 mM DTT, 5% glycerol, 0.1 mg/ml BSA) for 30 minutes at room temperature. Structures for A-1 and B-1 are shown above and structures for C-6 and C-7 are shown hereafter: [drawing 17] The resulting complexes were separated on a 6% DNA retardation gel using 0.5× TBE with 20 mM KCl as a running buffer (i.e., electrophoresis mobility shift assay (EMSA)).
The assay also was conducted using nucleic acid ligands derived from human ribosomal DNA. Sequences of these nucleic acids are shown in the preceding example. […]

Row | Molecule | Bmax, percent of active nucleic acid ligand (nucleolin [1]) | Kd (nucleolin [1]) | Affinity for Nucleolin (relative) (nucleolin [2])
1 | B1 | 55% | 0.7 nM | 
2 | B2 | 100% | 0.3 nM | ++++
